Assay results published in patent US20140044713A1 (KONINKLIJKE NEDERLANDSE AKADEMIE VAN WETENSCHAPPEN, published 2014).
One block for each binder: values may come before it.

B4: Frz6 (endogenous, LS174T cells) (receptor, human, UniProt O60353 19-706, looked up)
chain: HSLFTCEPITVPRCMKMAYNMTFFPNLMGHYDQSIAAVEMEHFLPLANLECSPNIETFLCKAFVPTCIEQIHVVPPCRKLCEKVYSDCKKLIDTFGIRWPEELECDRLQYCDETVPVTFDPHTEFLGPQKKTEQVQRDIGFWCPRHLKTSGGQGYKFLGIDQCAPPCPNMYFKSDELEFAKSFIGTVSIFCLCATLFTFLTFLIDVRRFRYPERPIIYYSVCYSIVSLMYFIGFLLGDSTACNKADEKLELGDTVVLGSQNKACTVLFMLLYFFTMAGTVWWVILTITWFLAAGRKWSCEAIEQKAVWFHAVAWGTPGFLTVMLLAMNKVEGDNISGVCFVGLYDLDASRYFVLLPLCLCVFVGLSLLLAGIISLNHVRQVIQHDGRNQEKLKKFMIRIGVFSGLYLVPLVTLLGCYVYEQVNRITWEITWVSDHCRQYHIPCPYQAKAKARPELALFMIKYLMTLIVGISAVFWVGSKKTCTEWAGFFKRNRKRDPISESRRVLQESCEFFLKHNSKVKHKKKHYKPSSHKLKVISKSMGTSTGATANHGTSAVAITSHDYLGQETLTEIQTSPETSMREVKADGASTPRLREQDCGEPASPAASISRLSGEQVDGKGQAGSVSESARSEGRISPKSDITDTGLAQSNNLQVPSSSEPSSLKGSTSLLVHPVSGVRKEQGGGCHSDT
notes: whole, on cells

Tests used:
[1] = target: B4; assay: TAP (anti-FLAG, anti-HA) + mass spectrometry, bait stably expressed in LS174T cells, Exp 7
Method: (§1) Left panel (Exps 1-7): HEK293T cells were transiently transfected, and LS174T cells were stably, transfected with the indicated tagged proteins. Right panel (Exps 8-9): HEK293T cells were incubated with the indicated tagged soluble proteins at 1 μg/ml. Sequential immunoprecipitation was performed by anti-FLAG and anti-HA antibodies and the associated complexes were analysed by mass spectrometry. Number of assigned spectra, number of unique peptides and the MASCOT Protein Score are given for selected identified proteins.

[2] = target: T1, Frz7 (endogenous, LS174T cells) (human, UniProt O75084 33-574); assay: as above
T1 construct: whole, on cells
Method: as §1

LRP5 (endogenous) = target: T2, LRP5 (endogenous) (human, UniProt O75197 32-1615); assay: TAP (anti-FLAG, anti-HA) + mass spectrometry, 293T cells incubated with the soluble tagged bait, Exp 9
T2 construct: whole, on cells
T2 sequence (O75197 32-1615): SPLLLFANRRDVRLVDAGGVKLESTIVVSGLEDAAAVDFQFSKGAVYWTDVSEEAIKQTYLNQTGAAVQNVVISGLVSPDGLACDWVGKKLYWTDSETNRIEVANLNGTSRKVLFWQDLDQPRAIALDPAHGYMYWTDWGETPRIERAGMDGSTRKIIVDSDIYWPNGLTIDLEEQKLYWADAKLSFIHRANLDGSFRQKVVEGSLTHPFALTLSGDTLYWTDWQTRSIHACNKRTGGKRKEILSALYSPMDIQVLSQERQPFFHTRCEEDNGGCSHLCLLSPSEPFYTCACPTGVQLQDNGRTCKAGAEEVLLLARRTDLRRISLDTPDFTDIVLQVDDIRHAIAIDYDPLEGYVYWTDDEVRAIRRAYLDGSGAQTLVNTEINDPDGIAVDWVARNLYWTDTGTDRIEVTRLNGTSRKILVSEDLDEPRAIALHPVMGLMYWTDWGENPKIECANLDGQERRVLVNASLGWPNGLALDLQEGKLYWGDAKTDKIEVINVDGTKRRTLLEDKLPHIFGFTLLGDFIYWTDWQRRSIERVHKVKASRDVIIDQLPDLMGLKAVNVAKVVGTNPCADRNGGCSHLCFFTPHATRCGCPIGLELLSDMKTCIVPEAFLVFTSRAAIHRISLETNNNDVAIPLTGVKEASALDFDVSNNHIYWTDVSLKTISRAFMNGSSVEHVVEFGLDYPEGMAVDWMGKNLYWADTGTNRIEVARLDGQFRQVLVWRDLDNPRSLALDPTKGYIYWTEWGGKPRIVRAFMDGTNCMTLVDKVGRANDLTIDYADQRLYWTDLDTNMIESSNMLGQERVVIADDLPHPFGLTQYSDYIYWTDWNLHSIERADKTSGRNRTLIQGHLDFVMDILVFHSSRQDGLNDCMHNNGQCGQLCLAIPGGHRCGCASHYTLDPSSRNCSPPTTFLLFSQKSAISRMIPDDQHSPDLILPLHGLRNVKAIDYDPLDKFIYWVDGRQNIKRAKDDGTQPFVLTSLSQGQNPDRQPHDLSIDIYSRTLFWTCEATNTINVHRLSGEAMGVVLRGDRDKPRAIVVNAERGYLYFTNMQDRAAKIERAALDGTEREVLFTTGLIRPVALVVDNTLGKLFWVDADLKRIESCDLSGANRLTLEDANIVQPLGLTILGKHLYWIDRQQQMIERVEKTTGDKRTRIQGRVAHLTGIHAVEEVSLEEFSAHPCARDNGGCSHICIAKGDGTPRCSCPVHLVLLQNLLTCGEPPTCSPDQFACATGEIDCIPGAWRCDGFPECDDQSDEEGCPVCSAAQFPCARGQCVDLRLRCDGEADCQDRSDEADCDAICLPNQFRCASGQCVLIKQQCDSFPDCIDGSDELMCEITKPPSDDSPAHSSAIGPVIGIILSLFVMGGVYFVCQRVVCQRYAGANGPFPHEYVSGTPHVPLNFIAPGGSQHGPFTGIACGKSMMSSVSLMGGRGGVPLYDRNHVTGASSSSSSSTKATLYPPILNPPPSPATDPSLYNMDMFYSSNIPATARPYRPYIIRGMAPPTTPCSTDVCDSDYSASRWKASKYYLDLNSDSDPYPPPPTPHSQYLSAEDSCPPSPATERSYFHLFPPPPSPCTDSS
Method: as §1

LRP6 (endogenous) = target: T3, LRP6 (endogenous) (human, UniProt O75581 20-1613); assay: as above
T3 construct: whole, on cells
T3 sequence (O75581 20-1613): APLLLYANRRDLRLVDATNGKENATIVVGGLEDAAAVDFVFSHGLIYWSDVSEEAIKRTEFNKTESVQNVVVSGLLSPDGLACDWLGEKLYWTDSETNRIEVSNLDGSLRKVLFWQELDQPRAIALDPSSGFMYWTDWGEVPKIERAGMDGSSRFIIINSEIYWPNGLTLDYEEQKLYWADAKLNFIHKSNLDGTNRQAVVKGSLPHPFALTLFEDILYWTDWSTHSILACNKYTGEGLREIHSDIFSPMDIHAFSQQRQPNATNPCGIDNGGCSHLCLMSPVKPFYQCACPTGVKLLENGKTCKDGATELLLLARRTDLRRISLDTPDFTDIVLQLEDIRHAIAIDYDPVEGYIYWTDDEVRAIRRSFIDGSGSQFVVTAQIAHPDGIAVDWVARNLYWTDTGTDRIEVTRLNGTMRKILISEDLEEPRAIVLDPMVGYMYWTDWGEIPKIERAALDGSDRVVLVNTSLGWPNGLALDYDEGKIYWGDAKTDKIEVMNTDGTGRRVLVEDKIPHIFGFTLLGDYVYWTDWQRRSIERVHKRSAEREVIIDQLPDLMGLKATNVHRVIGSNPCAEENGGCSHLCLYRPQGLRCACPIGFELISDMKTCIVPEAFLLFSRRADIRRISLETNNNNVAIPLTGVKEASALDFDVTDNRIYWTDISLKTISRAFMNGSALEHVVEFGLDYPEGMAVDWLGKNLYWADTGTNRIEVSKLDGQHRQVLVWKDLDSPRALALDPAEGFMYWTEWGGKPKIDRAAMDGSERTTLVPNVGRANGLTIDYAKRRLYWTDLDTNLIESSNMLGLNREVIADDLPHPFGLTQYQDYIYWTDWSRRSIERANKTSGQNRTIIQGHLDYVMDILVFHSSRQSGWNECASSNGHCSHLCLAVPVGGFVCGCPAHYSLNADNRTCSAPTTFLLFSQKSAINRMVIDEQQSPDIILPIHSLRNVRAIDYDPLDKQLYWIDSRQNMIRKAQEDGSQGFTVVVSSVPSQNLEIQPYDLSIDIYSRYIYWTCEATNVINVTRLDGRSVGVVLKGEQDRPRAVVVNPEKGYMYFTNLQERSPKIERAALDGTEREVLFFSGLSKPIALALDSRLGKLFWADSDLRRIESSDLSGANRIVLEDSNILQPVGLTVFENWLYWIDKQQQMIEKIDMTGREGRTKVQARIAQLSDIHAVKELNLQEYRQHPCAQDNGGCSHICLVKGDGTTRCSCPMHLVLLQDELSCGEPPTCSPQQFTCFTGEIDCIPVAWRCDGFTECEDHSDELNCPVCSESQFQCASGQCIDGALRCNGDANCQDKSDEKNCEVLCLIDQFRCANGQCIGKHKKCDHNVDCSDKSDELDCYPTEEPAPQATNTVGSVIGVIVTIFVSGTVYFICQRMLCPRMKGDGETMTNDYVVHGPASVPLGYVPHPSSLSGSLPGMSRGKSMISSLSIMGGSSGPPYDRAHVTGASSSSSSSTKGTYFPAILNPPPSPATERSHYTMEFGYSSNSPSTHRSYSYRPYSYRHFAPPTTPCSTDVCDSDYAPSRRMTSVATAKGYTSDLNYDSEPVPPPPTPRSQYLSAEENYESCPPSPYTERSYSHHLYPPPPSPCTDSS
Method: as §1

[3] = target: T4, Lgr5-exo-Fc (leucine-rich-repeat exodomain of Lgr5, amino acids 1 to 546, human IgG-Fc fusion protein) (human, UniProt O75473 22-546); assay: SPR array imaging (IBIS MX96), Rspo1-FH captured on anti-FLAG, LGR5-Fc at 45, 23 and 11 nM, 1:1 discrete interaction model
T4 construct: range 1-546; also called LGR5-Fc; huLGR5-Fc; not shown: human IgG-Fc
T4 sequence (looked up): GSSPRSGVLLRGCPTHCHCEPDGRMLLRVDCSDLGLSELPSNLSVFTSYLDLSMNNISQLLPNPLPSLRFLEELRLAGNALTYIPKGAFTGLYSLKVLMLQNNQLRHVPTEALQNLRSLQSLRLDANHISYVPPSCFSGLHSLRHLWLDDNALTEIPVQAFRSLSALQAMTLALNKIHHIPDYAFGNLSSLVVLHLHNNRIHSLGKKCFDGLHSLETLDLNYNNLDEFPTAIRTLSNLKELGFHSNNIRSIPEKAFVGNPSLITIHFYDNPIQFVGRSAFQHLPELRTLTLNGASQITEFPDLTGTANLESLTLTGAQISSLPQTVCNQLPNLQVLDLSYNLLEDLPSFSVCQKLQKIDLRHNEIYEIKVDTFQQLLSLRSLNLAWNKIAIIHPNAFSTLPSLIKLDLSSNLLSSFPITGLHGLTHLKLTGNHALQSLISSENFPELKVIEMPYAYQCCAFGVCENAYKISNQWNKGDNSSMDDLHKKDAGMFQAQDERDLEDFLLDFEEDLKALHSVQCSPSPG
Text: This allowed us to perform a binding experiment using Surface Plasmon Resonance array imaging.

[4] = target: T4, Lgr5-exo-Fc (leucine-rich-repeat …); assay: SPR array imaging (IBIS MX96), RSpo-1-FH captured on anti-Flag spots of decreasing density, 1:1 model, extrapolated to Rmax=0
Text: FIG. 15: Rspondin1-Lgr5 interaction KD determination by Surface Plasmon Resonance array imaging. […] In IBIS-SPRint software (version 2) an exponential fitting routine y=a*ebx was used for extrapolating the values of KD and kd at Rmax=0 (arrows).
Method: IBIS-SPRinT 2.0. An array of anti-Flag spots with decreasing densities was printed on a preactivated sensor surface (IBIS Technologies, Enschede, the Netherlands) using a continuous flow microspotter (CFM) (Wasatch Microfluidics, Utah, US).

Rspo1-Fc fusion protein = target: T5, Rspo1-Fc fusion protein (Homo sapiens (Human), UniProt Q2MKA7 21-263, limits assumed); assay: HEK293T cells transfected with the tagged Lgr, incubated with Rspo1-Fc, protein G immunoprecipitation, anti-FLAG Western blot
T5 construct: also called Rspondin1 IgFc fusion protein; not shown: Fc (IgFc) part
Text: FIG. 7A: Rspondin1 binds to Lgr4, Lgr5 and Lgr6. […] Bottom: Input of tagged proteins.

FLAG/HA-tagged Lgr4 = target: T6, FLAG/HA-tagged Lgr4 (human, UniProt Q9BXB1 25-951); assay: TAP (anti-FLAG, anti-HA) + mass spectrometry, bait stably expressed in LS174T cells, Exp 2
T6 construct: whole, on cells; also called Lgr4 bait; FH-tagged human Lgr4; not shown: FLAG/HA double tag
Method: as §1

B2: double (FLAG-HA)-tagged version of human Rspo-1 (Rspo1-FH) (ligand)
chain: SRGIKGKRQRRISAEGSQACAKGCELCSEVNGCLKCSPKLFILLERNDIRQVGVCLPSCPPGYFDARNPDMNKCIKCKIEHCEACFSHNFCTKCKEGLYLHKGRCYPACPEGSSAANGTMECSSPAQCEMSEWSPWGPCSKKQQLCGFRRGSEERTRRVLHAPVGDHAACSDTKETRRCTVRRVPCPEGQKRRKGGQGRRENANRNLARKESKEAGAGSRRRKGQQQQQQQGTVGPLTSAGPA
notes: Used as HEK293T conditioned medium; also called huRSPO1-FH; not shown: FLAG-HA double tag
binding result (LRP5 (endogenous)): no binding (tested: 1 µg/ml)
binding result (LRP6 (endogenous)): no binding (tested: 1 µg/ml)
Kd [3]: ~3 nM
Kd [4]: 3.07 nM
koff [4]: 0.000155 s⁻¹
kon [4]: 50400 M⁻¹ s⁻¹

Binder: B4
binding result (FLAG/HA-tagged Lgr4): no binding

Second part, the binder after the results:

binding result [1]: no binding
binding result [2]: no binding
B1: tagged Frizzled5 (Frz5) (receptor, UniProt Q13467 27-585, looked up)
chain: ASKAPVCQEITVPMCRGIGYNLTHMPNQFNHDTQDEAGLEVHQFWPLVEIQCSPDLRFFLCSMYTPICLPDYHKPLPPCRSVCERAKAGCSPLMRQYGFAWPERMSCDRLPVLGRDAEVLCMDYNRSEATTAPPRPFPAKPTLPGPPGAPASGGECPAGGPFVCKCREPFVPILKESHPLYNKVRTGQVPNCAVPCYQPSFSADERTFATFWIGLWSVLCFISTSTTVATFLIDMERFRYPERPIIFLSACYLCVSLGFLVRLVVGHASVACSREHNHIHYETTGPALCTIVFLLVYFFGMASSIWWVILSLTWFLAAGMKWGNEAIAGYAQYFHLAAWLIPSVKSITALALSSVDGDPVAGICYVGNQNLNSLRGFVLGPLVLYLLVGTLFLLAGFVSLFRIRSVIKQGGTKTDKLEKLMIRIGIFTLLYTVPASIVVACYLYEQHYRESWEAALTCACPGHDTGQPRAKPEYWVLMLKYFMCLVVGITSGVWIWSGKTVESWRRFTSRCCCRPRRGHKSGGAMAAGDYPEASAALTGRTGPPGPAATYHKQVSLSHV
notes: whole, on cells; also called double-tagged Frizzled5; Frz5 bait; not shown: FLAG/HA tag

binding result (Rspo1-Fc fusion protein): no binding (tested: ~1 µg/ml)
B3: Lgr1 (receptor, not shown: small tags and cut ends)
chain: CHHRICHCSNRVFLCQESKVTEIPSDLPRNAIELRFVLTKLRVIQKGAFSGFGDLEKIEISQNDVLEVIEADVFSNLPKLHEIRIEKANNLLYINPEAFQNLPNLQYLLISNTGIKHLPDVHKIHSLQKVLLDIQDNINIHTIERNSFVGLSFESVILWLNKNGIQEIHNCAFNGTQLDELNLSDNNNLEELPNDVFHGASGPVILDISRTRIHSLPSYGLENLKKLRARSTYNLKKLPTLEKLVALMEASLTYPSHCCAFANWRRQISELHPICNKSILRQEVDYMTQARGQRSSLAEDNESSYSRGFDMTYTEFDYDLCNEVVDVTCSPKPDAFNPCEDIMGYNILRVLIWFISILAITGNIIVLVILTTSQYKLTVPRFLMCNLAFADLCIGIYLLLIASVDIHTKSQYHNYAIDWQTGAGCDAAGFFTVFASELSVYTLTAITLERWHTITHAMQLDCKVQLRHAASVMVMGWIFAFAAALFPIFGISSYMKVSICLPMDIDSPLSQLYVMSLLVLNVLAFVVICGCYIHIYLTVRNPNIVSSSSDTRIAKRMAMLIFTDFLCMAPISFFAISASLKVPLITVSKAKILLVLFHPINSCANPFLYAIFTKNFRRDFFILLSKCGCYEMQAQIYRTETSSTVHNTHPRNGHCSSAPRVTSGSTYILVPLSHLAQN
notes: Control lane of the Rspo1-Fc pull-down
